Laboratory results reported in the nanobody polyreactivity screen of Harvey et al. (2022).

Assay: yeast display, Sf9 membrane polyspecificity reagent, FACS + sequencing; frameworks hold sequencing errors
Summary of the method: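 Using colony PCR, genes from sorted yeast display clones were amplified, then sequenced on MiSeq at 2 × 250 and filtered by CDR length. The clones had been stained with 10% biotinylated, detergent-solubilized Sf9 membrane reagent for 1 hour at 4 °C and sorted by FACS into low and high (top ~1%) gates on anti-HA and streptavidin fluorescence. Polyreactivity labels come from the gate of origin.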
For “QVQLVESGGGLVQAGGSLRLSCAASGGTFRSYTMGWYRQAPGKERELVAAISWGGSTYYADSVKGRFTISRDNAKNTVYLQMNSLKPEDTAVYYCAADYWSFYRKRDYWGQGTQVTVSS”, the “polyreactivity (PSR sort gate)” value was “low polyreactivity”. For “QVQLVESGGGLVQAGGSLRLSCAASGGTFRVYAMGWYIQAPGKERELVASISWTVGGTYADSVKGRFTISRDNAKNTVYLQMNSLKPEDTAVYYCAAGGEWVNPYFPSSLDYWGQGTQVTVSS”, the “polyreactivity (PSR sort gate)” value was “low polyreactivity”. With “QVQLVESGGGLVQAGGSLRLSCAASGGTFRVYAMGWYRQAPGKERELVAAITGRGGSTYYADSVKGRFTISRDNAKNTVYLQMNSLKPEDTAVYYCAKDPVTTYYKYDYWGQGTQVTVSS” the “polyreactivity (PSR sort gate)” value was “low polyreactivity”. With “QVQLVESGGGLVQAGGSLRLSCAASGGTFRVYAMGWYRQAPGKERELVAAITGRGGSTYYADSVKGRFTISRDNAKNTVYLQMNSLKPEDTAVYYCNKESELVEYDYWGQGTQVTVSS” the “polyreactivity (PSR sort gate)” value was “low polyreactivity”. In the case of “QVQLVESGGGLVQAGGSLRLSCAASGGTFRVYTMGWYRQAPGKERELVAAIILRGGGTYYADSVKGRFTISRDNAKNPVYLQMNSLNPEDTAVYYCNARSGNRYGPRYDYWGQGTQVTVSS”, the “polyreactivity (PSR sort gate)” value is reported as “high polyreactivity”. For “QVQLVESGGGLVQAGGSLRLSCAASGGTFSKNAMGWSRQAPGKERELVADIRSGGSTYYADSVKGRFTISRDNAKNTVYLQMNSLKPEDTAVYYCNADGDVNEYDYWGQGTQVTVSS”, the “polyreactivity (PSR sort gate)” value was “low polyreactivity”. For “QVQLVESGGGLVQAGGSLRLSCAASGGTFSSNAMGWYRQAPGKERELVAAIRSTGRTYYADSVKGRFTISRDNAKNTVYLQMNSLKPEDTAVYYCAADLGRTPTGKIGFDYWGQGTQVTVSS”, the “polyreactivity (PSR sort gate)” value was “high polyreactivity”. For “QVQLVESGGGLVQAGGSLRLSCAASGGTFSSYDMGWYRQAPGKERELVAAISWSGSSTDYADSVKGRFTISRDNAKNTVYLQMNSLKPEDTAVYYCNTDYWEITYSGVIWPEYDYWGQGTQVTVSS”, the “polyreactivity (PSR sort gate)” value was “low polyreactivity”. With “QVQLVESGGGLVQAGGSLRLSCAASGGTFSYYAMGWYRQAPGKERELVAAISGNGDTTYYADSVKGRFTSSRDNAKNTVYLQMNSLKPEYTAVYYCNVYVSAGEEVEYWGQGTQVTVSS” the “polyreactivity (PSR sort gate)” value was “low polyreactivity”. For “QVQLVESGGGLVQAGGSLRLSCAASGGTFSYYTMGWYRPAPGKERELVAAISSGGSTNYADSVKGRFTISRDNAKNTVYLQMNSLKPEDTAVYYCAVRSGRRNYDRPAFGYWGQGTQVTVSS”, the “polyreactivity (PSR sort gate)” value was “high polyreactivity”. In the case of “QVQLVESGGGLVQAGGSLRLSCAASGGTFTDYAMGWYRQAPGKERELVAAISSVGSTNYADSVKGRFTISRDNAKNTVYLQMNSLKPEDTAVYYCAVDYGRAVQGDSITYDFNYWGQGTQVTVSS”, the “polyreactivity (PSR sort gate)” value is reported as “low polyreactivity”. In the case of “QVQLVESGGGLVQAGGSLRLSCAASGGTFTNYAMGWYRQAPGKERELVAAITDSGATTYYADSVKGRFTISRDNAKNTVYLQMNSLKPEDTAVYYCNAALDLYTDFDYWGQGTQVTVSS”, the “polyreactivity (PSR sort gate)” value is reported as “low polyreactivity”. In the case of “QVQLVESGGGLVQAGGSLRLSCAASGGTFVFYAMGWYRQAPGKERELVAAISSAGRTYYADSVKGRFTISRDNAKNTVYLQMNSLKPEDTAVYYCAAVSSQYDGRYYYWGQGTQVTVSS”, the “polyreactivity (PSR sort gate)” value is reported as “high polyreactivity”. With “QVQLVESGGGLVQAGGSLRLSCAASGGTFVGYAMGWYRQAPGKERELVASITRRGGNTYYADSVKGRFTISRDNAKNTVYLQMNSLKPEDTAVYYCDRRYYYQYRYDYWGQGTQVTVSS” the “polyreactivity (PSR sort gate)” value was “high polyreactivity”. With “QVQLVESGGGLVQAGGSLRLSCAASGGTFVRYAMGWYRQAPGKERELVAAISRSGGSTYYADSVKGRFTISRDNAKNTVYLQMNSLKPEDTAVFYCNKDRQRYGEDYWGQGTQVTVSS” the “polyreactivity (PSR sort gate)” value was “high polyreactivity”. In the case of “QVQLVESGGGLVQAGGSLRLSCAASGGTFVYALGWYRQAPGKERELVAAISARTTGTYYADSVKGRFTISRDNAKNTVYLQMNSLKPEDTAVYYCAAKSKLSRDLYSWGQGTQVTVSS”, the “polyreactivity (PSR sort gate)” value is reported as “low polyreactivity”. For “QVQLVESGGGLVQAGGSLRLSCAASGGTFWAYTRGWYRQAPGKERELVATISFGTGNTYYADSVKGRFTISRDNAKNTVYLQMNSLKPEDTAVYYCAAQWPELTRSYVTVEVDYWGQGTQVTVSS”, the “polyreactivity (PSR sort gate)” value was “low polyreactivity”. In the case of “QVQLVESGGGLVQAGGSLRLSCAASGGTFWRNDMGWYRQAPGKERELVAAISYSGGTTYYADSVKGRFTISRDNAKNTVDLQMNSLKPEDTAVDYCATGGYSTRQSTFDYWGQGTQVTVSS”, the “polyreactivity (PSR sort gate)” value is reported as “low polyreactivity”. With “QVQLVESGGGLVQAGGSLRLSCAASGGTFYANAMGWYREAPGKERELVATITSSSGSTSYADSVKGRFTISRDNAKNTVYLQMNSLKPEDTAVYYCAKDSHAQGPYRYKHYHHTGDYWGQGTQVTVSS” the “polyreactivity (PSR sort gate)” value was “low polyreactivity”. For “QVQLVESGGGLVQAGGSLRLSCAASGGTFYAYAMGWYRQAPGKERELVAAITSGGRTYYADSVKGRFTISRDNAKNTVYLQMNSLKPEDTAVYYCAAKYFRGVKRDYWGQGTQVTVSS”, the “polyreactivity (PSR sort gate)” value was “high polyreactivity”. In the case of “QVQLVESGGGLVQAGGSLRLSCAASGGTFYEYVMGWDRQAPGKERELVAAISWGDGSTYYADSVKGRFTISRDNAKNTVYLQMNSLKPEDTAVYYCAADHTVFTYEYWGQGTQVTVSS”, the “polyreactivity (PSR sort gate)” value is reported as “high polyreactivity”. For “QVQLVESGGGLVQAGGSLRLSCAASGGTFYPYAMGWYRPAPGKERELVAAISASDDNTYYADSVKGRFTISRDNAKNTVYLQMNSLKPEDTAVYYCAKRSYFYPYYYWGQGTQVTVSS”, the “polyreactivity (PSR sort gate)” value was “high polyreactivity”. With “QVQLVESGGGLVQAGGSLRLSCAASGGTFYRYAMGWYRQAPGKERELVAVISKRGGTTYYADSVKGRFTISRDNAKNTVYLQMNSLKPVDTAVYYCAVRAPQSYGYDYWGQGTQVTVSS” the “polyreactivity (PSR sort gate)” value was “high polyreactivity”. In the case of “QVQLVESGGGLVQAGGSLRLSCAASGGTFYSYAMGWYRQAPGTERELVAAISRRGGSTYYADSVKGRFTISLDNAKNTVYLQMNSLKPEDTAVYYCNTYIYQVRDDYWGQGTQVTVSS”, the “polyreactivity (PSR sort gate)” value is reported as “high polyreactivity”. With “QVQLVESGGGLVQAGGSLRLSCAASGGTFYYNAMGWYRQAPGKERELVAAITDSGGRTYYADSVKGRFTISRDNAKNTVYLQMNSLKPEDTAVYYCAALARRQSRLYDYWGQGTQVTVSS” the “polyreactivity (PSR sort gate)” value was “high polyreactivity”. In the case of “QVQLVESGGGLVQAGGSLRLSCAASGGTFYYNAMGWYRQAPGKERELVAAITSGDRTYYADSVKGRFTISRDNAKYTVYLQMNSLKPEDTAVYYCAARWFRSNKYWGQGTQVTVSS”, the “polyreactivity (PSR sort gate)” value is reported as “high polyreactivity”. With “QVQLVESGGGLVQAGGSLRLSCAASGGTFYYYAMGWSRQAPGKERELVAAISTSGTSTYYADSVKGRFTISRDNAKNTVYLQMNSLKPEVTAVYYCAARGLRVSSRGYYWGQGTQLTVSS” the “polyreactivity (PSR sort gate)” value was “high polyreactivity”. For “QVQLVESGGGLVQAGGSLRLSCAASGGTIAGYAMGWYRHAPGKERELVASISDGGSTNYADSVKGRFTISRDNAKNTVYLQMNSLKPEDTAVYYCADLAYVPSYTYDYWGQGTQVTVSS”, the “polyreactivity (PSR sort gate)” value was “low polyreactivity”. With “QVQLVESGGGLVQAGGSLRLSCAASGGTIAYNAMGWYRQAPGKERELVAAISSSGGRTYYADSVKGRFTISRDNAKNTVYLQMNSLKPEDTAVYYCATPVTNGFDYWGQGTQVTVSS” the “polyreactivity (PSR sort gate)” value was “high polyreactivity”. With “QVQLVESGGGLVQAGGSLRLSCAASGGTILYYAMGWYRQAPGKEMELVAAISRGGSTHYADSVKWRFTISRDNAKNTVYLQMNRLKPEDTAVFYCAVDGGEFSSYGYWGHGTQVTVSS” the “polyreactivity (PSR sort gate)” value was “low polyreactivity”.
